The data set deals with T1, JUL1 (JULGI) (Arabidopsis thaliana).
T1 sequence: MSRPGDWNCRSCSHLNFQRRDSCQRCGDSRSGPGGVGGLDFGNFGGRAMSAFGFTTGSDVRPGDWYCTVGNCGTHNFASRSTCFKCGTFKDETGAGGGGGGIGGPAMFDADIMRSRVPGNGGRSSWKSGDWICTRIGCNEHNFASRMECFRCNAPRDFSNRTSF
The data set can be described thus: EMSA. The following applies: method inferred from context. In general terms: A gel shift assay detects complexes by their altered migration in electrophoresis.

For the substance SMXL5 5'UTR G-quadruplex probe, the Kd was 130 nM (with potassium) and 230 nM (without potassium).

Usually Kd stands for the equilibrium constant for the complex coming apart.

Source of the values: patent US20230176076.
